Assays:
rat LH receptor (rat) [1] = molecular target: rat LH receptor (rat) (UniProt P16235)
rat LH receptor (rat) [2] = molecular target: rat LH receptor (rat) (UniProt P16235); remark: listed apart in the source
[3] = molecular target: human FSH receptor (human) (UniProt P23945)
rat LH receptor (rat) [4] = molecular target: rat LH receptor (rat) (UniProt P16235); remark: listed apart in the source

Efficacy, cyclic AMP accumulation (rat LH receptor (rat) [1]) [%] | cyclic AMP accumulation (rat LH receptor (rat) [2]) | efficacy in cyclic AMP assays [3] | efficacy in cyclic AMP assays (rat LH receptor (rat) [4]) | Substance
42 | 40 % of hCG |  |  | dghCG (hCG lacking the α-subunit loop 2 oligosaccharide) (from UniProt P01215) (ligand)
24 |  |  |  | dgα37-β33 (dg-αY37C/hCGβI33C) (from UniProt P01215) (ligand)
 |  | < 4 % of hFSH | < 10 % of hCG | dgα37-β33CF (dg-αY37C/CF101-109βI33C) (from UniProt P01215) (ligand)
 |  | < 4 % of hFSH | < 10 % of hCG | dgα37-β33CFC (dg-αY37C/CFC101-114βI33C) (from UniProt P01215) (ligand)
